The target in this experiment is T1, aspartyl (asparaginyl) β-hydroxylase (ASPH) (UniProt Q12797 75-758, limits assumed).
T1 construct: also called ASPH protein
T1 sequence (looked up): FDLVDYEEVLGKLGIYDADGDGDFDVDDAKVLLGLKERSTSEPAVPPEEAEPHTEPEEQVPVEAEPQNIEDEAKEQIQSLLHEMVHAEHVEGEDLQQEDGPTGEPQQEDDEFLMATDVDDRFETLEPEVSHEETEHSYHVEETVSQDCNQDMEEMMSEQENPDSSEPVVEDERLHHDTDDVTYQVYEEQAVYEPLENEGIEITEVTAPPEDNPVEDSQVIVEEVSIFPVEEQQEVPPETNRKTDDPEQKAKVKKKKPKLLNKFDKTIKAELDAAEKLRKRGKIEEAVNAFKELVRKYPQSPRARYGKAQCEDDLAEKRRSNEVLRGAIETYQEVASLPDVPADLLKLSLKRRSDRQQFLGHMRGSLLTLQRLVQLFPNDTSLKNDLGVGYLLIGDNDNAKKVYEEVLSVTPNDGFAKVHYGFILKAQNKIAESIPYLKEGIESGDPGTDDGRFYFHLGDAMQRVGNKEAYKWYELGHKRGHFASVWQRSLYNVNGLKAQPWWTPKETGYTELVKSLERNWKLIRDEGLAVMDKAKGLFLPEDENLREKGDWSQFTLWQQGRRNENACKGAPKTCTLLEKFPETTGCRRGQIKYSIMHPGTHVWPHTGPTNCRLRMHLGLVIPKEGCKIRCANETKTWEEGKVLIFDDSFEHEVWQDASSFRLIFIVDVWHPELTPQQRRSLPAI
In words: SPR, antibody captured via Protein G, ASPH as analyte. The protocol: The interaction between ASPH and a set of 6 antibodies were characterized by Essai Sciences LLC (Stillwater, Okla.) on a SensiQ Pioneer SPR Platform. The COOH2 sensor chip, which contains a planar dextran surface, was used for target immobilization. The buffer system was 10 mM HEPES, pH 7.4, 150 mM NaCl, and 0.01% Tween-20.
All channels of a COOH2 sensor chip were activated with a five-minute injection of 40 mM EDC and 10 mM NHS. Protein G was then injected across channels 1 and 2. 1 M ethanolamine, pH 8.0 was then injected across all three channels. Approximately 1000 response units of Protein G were captured on both channels 1 and 2 (FIG. 18). For each antibody-ASPH interaction, the antibody was injected on channel 1, leaving channels 2 and 3 as a Protein G reference and empty channel reference, respectively. After antibody capture, ASPH was injected at a single concentration. Following injection of ASPH, all three channels were injected with 10 mM NaOH for one minute to regenerate the Protein G surface. This was done twice for each antibody, at each tested concentration of ASPH.
For orientation: Surface plasmon resonance follows binding to a sensor surface in real time, without labels.

Where two headings read alike, the source gives them in different places.

Usually Kd stands for the constant that tells how readily two partners part at equilibrium. A higher Kd goes with a looser complex. By koff is commonly meant a measure of how fast the partners let go of each other. A low value points to slow dissociation. A word on the kon: it is a measure of how fast the partners come together. A high value points to fast association.

B1: 9H2/9K3 (antibody, part only; not given: kappa light chain, V domains shown, part only)
VH: QSLEESGGDLVKPGASLTLTCKASGFDFISNAMCWVRQAPGKGPEWIACIDNGDGSTDYATWAKGRFTISKTSSTTVTLQMTSLTAADTATYFCTRNFNLWGQGTLTVSSGQPKAPSVFPLAP
In turn, B1 registered an equilibrium dissociation constant (Kd) of 61.9 nM, an off-rate (koff) of 0.00185 s⁻¹ and an on-rate (kon) of 29800 M⁻¹ s⁻¹. The Kd (record 2) was 60 nM.

B2: 5H4/5K3 (antibody, V domains shown)
VH: QSLEESGGDLVKPGASLTLTCKASGFDFSSNAMCWVRQAPGKGPEWIACIDNGDGSTDYATWAKGRFTISKTSSTTVTLQMTSLTAADTATYFCTRNFNLWGQGTLVTVSS
VL: AQVLTQTASSVSAAVGGTVTISCQSSQSVYDNNRLAWFQQKPGQPPKLLIYETSKLASGVPLRFKGSGSGTQFTLTISDLECDDAATYYCLGSYSGYIYTFGGGTEVVVKG
notes: The entries are translated variable regions that still carry the leader and the start of the constant region (GQPK... / GDPV...)
Turning to B2, the Kd is 144 nM, the koff was found to be 0.00243 s⁻¹ and the association rate constant (kon) worked out at 16800 M⁻¹ s⁻¹.
